Measurements published in PMC9771472, “Tenuous transcriptional threshold of human sex determination. II. SRY exploits water-mediated clamp at the edge of ambiguity”.

Tests used:
SRY HMG box Y72H = SRY HMG box Y72H (human, UniProt Q05066 57-141, Y127H); test: stopped-flow FRET; near-native affinity (Kd from companion paper); koff 14(+/-0.38)-fold faster than WT at 10 C; FRET: 10 mM potassium phosphate, 10 mM Tris-HCl, 140 mM KCl, pH 8.0, 15 and 37 C, 25 nM DNA (Kd); sf-FRET 1 uM complex + 20 uM unlabelled DNA at 10, 15, 25, 37; details: protein: recombinant; label: 5'-fluorescein (upper strand); 5'-TAMRA (lower strand), hexanyl linkers; blunt
SRY HMG box Y72W [1] = target: T1, SRY HMG box Y72W (human, UniProt Q05066 57-141, Y127W); test: steady-state FRET; stopped-flow FRET; high affinity retained; slight koff increase; FRET: 10 mM potassium phosphate, 10 mM Tris-HCl, 140 mM KCl, pH 8.0, 15 and 37 C, 25 nM DNA (Kd); sf-FRET 1 uM complex + 20 uM unlabelled DNA at 10, 15, 25, 37; details: protein: recombinant; label: 5'-fluorescein (upper strand); 5'-TAMRA (lower strand), hexanyl linkers; blunt
SRY HMG box Y72C = SRY HMG box Y72C (human, UniProt Q05066 57-141, Y127C); test: stopped-flow FRET; near-native affinity (Kd from companion paper); koff 26(+/-1.3)-fold faster than WT at 10 C; FRET: 10 mM potassium phosphate, 10 mM Tris-HCl, 140 mM KCl, pH 8.0, 15 and 37 C, 25 nM DNA (Kd); sf-FRET 1 uM complex + 20 uM unlabelled DNA at 10, 15, 25, 37; details: protein: recombinant; label: 5'-fluorescein (upper strand); 5'-TAMRA (lower strand), hexanyl linkers; blunt
SRY HMG box Y72F [2] = target: T2, SRY HMG box Y72F (human, UniProt Q05066 57-141, Y127F); test: steady-state FRET; stopped-flow FRET; native-like affinity; koff about 4-fold faster than WT at 37 C, compensated by kon; FRET: 10 mM potassium phosphate, 10 mM Tris-HCl, 140 mM KCl, pH 8.0, 15 and 37 C, 25 nM DNA (Kd); sf-FRET 1 uM complex + 20 uM unlabelled DNA at 10, 15, 25, 37; details: protein: recombinant; label: 5'-fluorescein (upper strand); 5'-TAMRA (lower strand), hexanyl linkers; blunt
SRY HMG box WT [3] = target: T3, SRY HMG box WT (human, UniProt Q05066 57-141); test: steady-state FRET; reference; Kd values in Table S7 not in material; FRET: 10 mM potassium phosphate, 10 mM Tris-HCl, 140 mM KCl, pH 8.0, 15 and 37 C, 25 nM DNA (Kd); sf-FRET 1 uM complex + 20 uM unlabelled DNA at 10, 15, 25, 37; details: protein: recombinant; label: 5'-fluorescein (upper strand); 5'-TAMRA (lower strand), hexanyl linkers; blunt
SRY HMG box Y72W [4] = target: T1, SRY HMG box Y72W; test: CD; 25 uM each; A-form features in bound DNA; FRET: 10 mM potassium phosphate, 10 mM Tris-HCl, 140 mM KCl, pH 8.0, 15 and 37 C, 25 nM DNA (Kd); sf-FRET 1 uM complex + 20 uM unlabelled DNA at 10, 15, 25, 37; details: protein: recombinant; blunt
SRY HMG box Y72F [5] = target: T2, SRY HMG box Y72F; test: NMR (1H imino, NOESY, 15N HSQC); CD; 1:1, 25 C, 10 mM K-phosphate pH 7.4, 50 mM KCl (NMR); FRET: 10 mM potassium phosphate, 10 mM Tris-HCl, 140 mM KCl, pH 8.0, 15 and 37 C, 25 nM DNA (Kd); sf-FRET 1 uM complex + 20 uM unlabelled DNA at 10, 15, 25, 37; details: protein: recombinant; blunt
SRY HMG box WT [6] = target: T3, SRY HMG box WT; test: as above; details: protein: recombinant; blunt
SRY HMG box Y72A = SRY HMG box Y72A (human, UniProt Q05066 57-141, Y127A); test: CD; 25 uM each; least shifted toward A-DNA; FRET: 10 mM potassium phosphate, 10 mM Tris-HCl, 140 mM KCl, pH 8.0, 15 and 37 C, 25 nM DNA (Kd); sf-FRET 1 uM complex + 20 uM unlabelled DNA at 10, 15, 25, 37; details: protein: recombinant; blunt

Measured: binding result

T1 sequence (Q05066 57-141 Y127W): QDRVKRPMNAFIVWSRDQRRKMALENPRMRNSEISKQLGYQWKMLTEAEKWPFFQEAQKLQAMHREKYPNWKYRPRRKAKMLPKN
T2 sequence (Q05066 57-141 Y127F): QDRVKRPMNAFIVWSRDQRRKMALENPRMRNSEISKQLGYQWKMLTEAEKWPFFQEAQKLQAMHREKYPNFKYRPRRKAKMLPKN
T3 sequence (Q05066 57-141): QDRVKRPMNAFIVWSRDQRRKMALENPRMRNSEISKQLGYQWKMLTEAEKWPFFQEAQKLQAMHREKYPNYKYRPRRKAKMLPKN
SRY HMG box Y72C, sequence (Q05066 57-141 Y127C): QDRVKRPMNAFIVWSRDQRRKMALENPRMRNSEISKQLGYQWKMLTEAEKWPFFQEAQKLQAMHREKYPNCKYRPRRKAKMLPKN
SRY HMG box Y72A, sequence (Q05066 57-141 Y127A): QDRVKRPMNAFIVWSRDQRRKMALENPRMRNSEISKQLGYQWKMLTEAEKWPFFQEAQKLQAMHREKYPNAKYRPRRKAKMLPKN
SRY HMG box Y72H, sequence (Q05066 57-141 Y127H): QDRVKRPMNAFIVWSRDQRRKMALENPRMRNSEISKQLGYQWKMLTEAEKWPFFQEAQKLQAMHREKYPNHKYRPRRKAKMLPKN

B1: 15-bp SRY site, FRET-labelled (dsDNA)
DNA 1: TCGGTGATTGTTCAG
DNA 2: CTGAACAATCACCGA
binds: SRY HMG box Y72H | SRY HMG box Y72W [1] | SRY HMG box Y72C | SRY HMG box Y72F [2] | SRY HMG box WT [3]

B2: 15-bp SRY site, unlabelled (dsDNA)
DNA 1: TCGGTGATTGTTCAG
DNA 2: CTGAACAATCACCGA
binds: SRY HMG box Y72W [4] | SRY HMG box Y72F [5] | SRY HMG box WT [6] | SRY HMG box Y72A
